Experimental data reported in the supplement of paper PMC10567573.

B1: HSP90AB1 (parent)
chain: TLRQKAEADKNDKAVKDLVVLLFE

Variants of: B1
Test: protein stability index of a GFP-peptide fusion (GPS, HEK-293T) (PSI 1-6); higher = more stable
Settings: c terminus: a fixed tail appended
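Also: lentivirally expressed fusions sorted by FACS into six bins by GFP to DsRed ratio, PSI derived from sequencing read proportions per bin multiplied by bin number.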

For TLRQKAEADKNDKAVIDLVVLLFE [K16I], which protein stability index is on record?
The protein stability index was 2.24.

Which protein stability index does the source give for TLRQKAELDKNDKAVKDLVVLLFE [A8L] here?
The protein stability index was 2.38.

For TLRQKAEHDKNDKAVKDLVVLLFE [A8H], which protein stability index is on record?
The protein stability index was 2.85.

With TLRQKAEVDKNDKAVKDLVVLLFE [A8V] as the variant, how does the protein stability index read?
Its protein stability index is 3.27.

Which protein stability index does the source give for TLRQKAECDKNDKAVKDLVVLLFE [A8C] here?
Its protein stability index is 2.87.

Which protein stability index does the source give for TLRQKAERDKNDKAVKDLVVLLFE [A8R] here?
Its protein stability index is 2.87.

For TLRQKAEEDKNDKAVKDLVVLLFE [A8E], which protein stability index is on record?
The protein stability index was 3.16.

For TLRQKAEAYKNDKAVKDLVVLLFE [D9Y], which protein stability index is on record?
The protein stability index was 2.87.

Which protein stability index does the source give for TLRQKAEAHKNDKAVKDLVVLLFE [D9H] here?
The protein stability index was 2.95.

With TLRQKAEAEKNDKAVKDLVVLLFE [D9E] as the variant, how does the protein stability index read?
The protein stability index was 2.74.

For TLRQKAEAGKNDKAVKDLVVLLFE [D9G], which protein stability index is on record?
Its protein stability index is 3.17.

With TLRQKAEATKNDKAVKDLVVLLFE [D9T] as the variant, how does the protein stability index read?
Its protein stability index is 2.35.

Which protein stability index does the source give for TLRQKAEAQKNDKAVKDLVVLLFE [D9Q] here?
Its protein stability index is 3.23.

With TLRQKAEADKNDKAVKDLVVLLFC [E24C] as the variant, how does the protein stability index read?
Its protein stability index is 1.43.

With TLRQKAEADKNDKAVKDLVVLLFN [E24N] as the variant, how does the protein stability index read?
Its protein stability index is 2.44.

For TLRQKAEADKNDKAVKDLVVLLFA [E24A], which protein stability index is on record?
The protein stability index was 1.89.

Which protein stability index does the source give for TLRQKAEADKNDKAVKDLVVLLFY [E24Y] here?
The protein stability index was 2.21.

Which protein stability index does the source give for TLRQKAEADKNDKAVKDLVVLLFM [E24M] here?
The protein stability index was 1.83.

For TLRQKAEADKNDKAVKDLVVLLFG [E24G], which protein stability index is on record?
The protein stability index was 2.26.

With TLRQKAEADKNDKAVKDLVVLLFK [E24K] as the variant, how does the protein stability index read?
The protein stability index was 2.06.

With TLRQKAEADKNIKAVKDLVVLLFE [D12I] as the variant, how does the protein stability index read?
The protein stability index was 2.

For TLRQKAEADKNNKAVKDLVVLLFE [D12N], which protein stability index is on record?
The protein stability index was 2.62.

Which protein stability index does the source give for TLRQKAEADKNFKAVKDLVVLLFE [D12F] here?
Its protein stability index is 2.24.

With TLRPKAEADKNDKAVKDLVVLLFE [Q4P] as the variant, how does the protein stability index read?
Its protein stability index is 3.06.

With TLRDKAEADKNDKAVKDLVVLLFE [Q4D] as the variant, how does the protein stability index read?
Its protein stability index is 3.32.

Which protein stability index does the source give for TLRFKAEADKNDKAVKDLVVLLFE [Q4F] here?
Its protein stability index is 2.58.

For TLRCKAEADKNDKAVKDLVVLLFE [Q4C], which protein stability index is on record?
The protein stability index was 2.51.

For TLRWKAEADKNDKAVKDLVVLLFE [Q4W], which protein stability index is on record?
Its protein stability index is 2.71.

For TLRIKAEADKNDKAVKDLVVLLFE [Q4I], which protein stability index is on record?
The protein stability index was 2.41.

For TLRRKAEADKNDKAVKDLVVLLFE [Q4R], which protein stability index is on record?
Its protein stability index is 2.26.

For TLRQKAEADKNDKTVKDLVVLLFE [A14T], which protein stability index is on record?
Its protein stability index is 2.57.

With TLRQKAEADKNDKFVKDLVVLLFE [A14F] as the variant, how does the protein stability index read?
The protein stability index was 2.02.

For TLRQKAEADKNDKQVKDLVVLLFE [A14Q], which protein stability index is on record?
Its protein stability index is 2.92.

For TLRQKAEADKNDKLVKDLVVLLFE [A14L], which protein stability index is on record?
The protein stability index was 2.63.

With TLRQKAEADKNDKDVKDLVVLLFE [A14D] as the variant, how does the protein stability index read?
The protein stability index was 2.58.

For TLRQKAEADKNDKAVKDLVALLFE [V20A], which protein stability index is on record?
The protein stability index was 4.47.

Which protein stability index does the source give for TLRQKAEADKNDKAVKDLVRLLFE [V20R] here?
The protein stability index was 2.88.

With TLRQKAEADKNDKAVKDLVGLLFE [V20G] as the variant, how does the protein stability index read?
The protein stability index was 3.64.

For TLRQKAEADKNDKAVKDLVMLLFE [V20M], which protein stability index is on record?
The protein stability index was 3.77.

Which protein stability index does the source give for TLRQKAEADKNDKAVKDLVWLLFE [V20W] here?
The protein stability index was 2.58.

For TLRQKAEADKNDKAVKDLVSLLFE [V20S], which protein stability index is on record?
The protein stability index was 4.6.

Which protein stability index does the source give for TLNQKAEADKNDKAVKDLVVLLFE [R3N] here?
Its protein stability index is 3.1.

Which protein stability index does the source give for TLYQKAEADKNDKAVKDLVVLLFE [R3Y] here?
The protein stability index was 2.35.

Which protein stability index does the source give for TLIQKAEADKNDKAVKDLVVLLFE [R3I] here?
Its protein stability index is 3.18.

With TLGQKAEADKNDKAVKDLVVLLFE [R3G] as the variant, how does the protein stability index read?
The protein stability index was 2.72.

Which protein stability index does the source give for TLDQKAEADKNDKAVKDLVVLLFE [R3D] here?
The protein stability index was 3.57.

With TLCQKAEADKNDKAVKDLVVLLFE [R3C] as the variant, how does the protein stability index read?
Its protein stability index is 2.75.

For TLRQKAEADKNDKAVKDLVVLLWE [F23W], which protein stability index is on record?
Its protein stability index is 2.56.

For TLRQKAEADKNDKAVKDLVVLLNE [F23N], which protein stability index is on record?
The protein stability index was 4.73.

For TLRQKAEADKNDKAVKDLVVLLLE [F23L], which protein stability index is on record?
The protein stability index was 3.27.

For TLRQKAEADKNDKAVKDLVVLLRE [F23R], which protein stability index is on record?
Its protein stability index is 3.79.

Which protein stability index does the source give for TLRQKAEADKNDKAVKDLVVLLQE [F23Q] here?
Its protein stability index is 4.55.

With TLRQKAEADKNDKAVKDLVVLLIE [F23I] as the variant, how does the protein stability index read?
Its protein stability index is 2.88.

With TLRQKAEADKNDKAVKDLVVLLYE [F23Y] as the variant, how does the protein stability index read?
Its protein stability index is 3.47.

For TLRQKAEADKNDKAVKDLVVLLPE [F23P], which protein stability index is on record?
The protein stability index was 5.02.

Which protein stability index does the source give for TLRQKAEADKNDKAVKDLVVLLTE [F23T] here?
Its protein stability index is 4.76.

Which protein stability index does the source give for TLRQKAEADKNDKAVKDLVVLLSE [F23S] here?
Its protein stability index is 3.95.

With TLRQKPEADKNDKAVKDLVVLLFE [A6P] as the variant, how does the protein stability index read?
The protein stability index was 3.29.

With TLRQKFEADKNDKAVKDLVVLLFE [A6F] as the variant, how does the protein stability index read?
Its protein stability index is 2.74.

For TLRQKAEADKNDKAVKDLVVELFE [L21E], which protein stability index is on record?
Its protein stability index is 3.98.

With TLRQKAEADKNDKAVKDLVVSLFE [L21S] as the variant, how does the protein stability index read?
Its protein stability index is 3.44.

For TLRQKAEADKNDKAVKDLVVDLFE [L21D], which protein stability index is on record?
The protein stability index was 4.26.

Which protein stability index does the source give for TLRQKAEADKNDKAVKDLVVNLFE [L21N] here?
The protein stability index was 3.89.

Which protein stability index does the source give for TLRQKAEADKNDKAVKDLVVFLFE [L21F] here?
The protein stability index was 2.35.

Which protein stability index does the source give for TLRQKAEADKNDKAVKDLVVYLFE [L21Y] here?
The protein stability index was 2.41.

With TLRQKAEADKNDKAVKDLVVVLFE [L21V] as the variant, how does the protein stability index read?
Its protein stability index is 3.06.

For TLRQKAEADKMDKAVKDLVVLLFE [N11M], which protein stability index is on record?
The protein stability index was 3.11.

Which protein stability index does the source give for TLRQKAEADKVDKAVKDLVVLLFE [N11V] here?
Its protein stability index is 2.89.

With TLRQKAEADKRDKAVKDLVVLLFE [N11R] as the variant, how does the protein stability index read?
The protein stability index was 3.15.

With TLRQKAEADKDDKAVKDLVVLLFE [N11D] as the variant, how does the protein stability index read?
Its protein stability index is 2.84.

With TLRQKAEADKCDKAVKDLVVLLFE [N11C] as the variant, how does the protein stability index read?
Its protein stability index is 2.88.

With TLRQKAEADKTDKAVKDLVVLLFE [N11T] as the variant, how does the protein stability index read?
Its protein stability index is 3.37.

With TLRQSAEADKNDKAVKDLVVLLFE [K5S] as the variant, how does the protein stability index read?
Its protein stability index is 3.36.

Which protein stability index does the source give for TLRQYAEADKNDKAVKDLVVLLFE [K5Y] here?
The protein stability index was 3.26.

With TLRQQAEADKNDKAVKDLVVLLFE [K5Q] as the variant, how does the protein stability index read?
The protein stability index was 4.01.

With TLRQRAEADKNDKAVKDLVVLLFE [K5R] as the variant, how does the protein stability index read?
Its protein stability index is 3.

For TLRQAAEADKNDKAVKDLVVLLFE [K5A], which protein stability index is on record?
The protein stability index was 3.12.

For TLRQKAEADKNDKAVKDLVVLNFE [L22N], which protein stability index is on record?
The protein stability index was 4.2.

For TLRQKAEADKNDKAVKDLVVLQFE [L22Q], which protein stability index is on record?
Its protein stability index is 4.84.

Which protein stability index does the source give for TLRQKAEADKNDKAVKDLVVLHFE [L22H] here?
The protein stability index was 3.79.

Which protein stability index does the source give for TLRQKAEADKNDKAVKDLVVLKFE [L22K] here?
The protein stability index was 4.47.

For TLRQKAEADKNDKAVKDLVVLEFE [L22E], which protein stability index is on record?
The protein stability index was 4.86.

With TLRQKAEADKNDKAVKDMVVLLFE [L18M] as the variant, how does the protein stability index read?
Its protein stability index is 3.29.

With TLRQKAEADKNDKAVKDQVVLLFE [L18Q] as the variant, how does the protein stability index read?
Its protein stability index is 4.03.

For TLRQKAEADKNDKAVKDVVVLLFE [L18V], which protein stability index is on record?
Its protein stability index is 2.24.

For TLRQKAEADKNDKAVKDDVVLLFE [L18D], which protein stability index is on record?
The protein stability index was 4.2.

Which protein stability index does the source give for TLRQKAEADKNDKAVKDNVVLLFE [L18N] here?
Its protein stability index is 4.19.

Which protein stability index does the source give for TLRQKAEADKNDKAVKHLVVLLFE [D17H] here?
The protein stability index was 2.52.

Which protein stability index does the source give for TLRQKAEADKNDKAVKLLVVLLFE [D17L] here?
Its protein stability index is 1.49.

For TLRQKAEADKNDKAVKKLVVLLFE [D17K], which protein stability index is on record?
The protein stability index was 2.14.

For TLRQKAEADKNDKAVKNLVVLLFE [D17N], which protein stability index is on record?
The protein stability index was 2.69.

For TLRQKAEADKNDKAVKWLVVLLFE [D17W], which protein stability index is on record?
The protein stability index was 2.62.

Which protein stability index does the source give for TLRQKAEADKNDKAVKVLVVLLFE [D17V] here?
Its protein stability index is 1.6.

With TLRQKAEADKNDKAVKCLVVLLFE [D17C] as the variant, how does the protein stability index read?
The protein stability index was 1.83.
